The target of assay [1] is nectin-1 (human (endogenous in primary tonsil epithelial cells)) (UniProt Q15223).
Assay [2] shares this target. This is another data set of the same source.

Sequence of UniProt Q15223 (Q15223 31-517): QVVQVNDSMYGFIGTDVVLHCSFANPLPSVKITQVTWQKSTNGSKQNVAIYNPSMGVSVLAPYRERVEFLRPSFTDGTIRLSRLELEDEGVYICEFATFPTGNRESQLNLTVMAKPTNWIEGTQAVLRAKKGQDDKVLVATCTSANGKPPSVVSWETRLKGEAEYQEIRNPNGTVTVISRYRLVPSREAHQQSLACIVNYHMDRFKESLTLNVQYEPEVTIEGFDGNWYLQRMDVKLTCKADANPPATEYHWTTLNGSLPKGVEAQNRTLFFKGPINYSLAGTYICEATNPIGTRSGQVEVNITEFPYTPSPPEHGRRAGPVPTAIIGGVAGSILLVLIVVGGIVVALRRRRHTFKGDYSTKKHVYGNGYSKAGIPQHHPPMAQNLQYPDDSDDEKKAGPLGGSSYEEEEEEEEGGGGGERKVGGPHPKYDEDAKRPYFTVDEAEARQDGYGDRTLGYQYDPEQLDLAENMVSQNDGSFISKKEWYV

As to “truncated form of HSV-1 gD ectodomain gD(306t) (domain or fragment)”, the HSV-1 infection (percent of infected cells, 24 h) of polarized tonsil cells treated with active tat/gp120 or HIV virions; reduction by preincubation with anti-nectin-1 antibody CK-8 (10 µg/ml) in assay [1] is 70%. Also, in assay [2], the HSV-1 plaque numbers in polarized tonsil cells treated with active tat/gp120; reduction by anti-gD antibodies (10 µg/ml) came to 30%; the HSV-1 plaque numbers in polarized tonsil cells treated with active tat/gp120; reduction by anti-nectin-1 antibodies (10 µg/ml) is 40%; the HSV-1 plaque numbers in polarized tonsil cells treated with active tat/gp120; reduction by the combination of anti-gD and anti-nectin-1 antibodies was determined as 60%; the HSV-1 plaque size (infected cells per plaque, cell-to-cell spread) in polarized tonsil cells treated with active tat/gp120; reduction by anti-gD antibodies (10 µg/ml) stood at 60%. For the same substance, in assay [2], the HSV-1 plaque size (infected cells per plaque, cell-to-cell spread) in polarized tonsil cells treated with active tat/gp120; reduction by anti-nectin-1 antibodies (10 µg/ml) turned out to be 50%; the HSV-1 plaque size (infected cells per plaque, cell-to-cell spread) in polarized tonsil cells treated with active tat/gp120; reduction by the combination of anti-nectin-1 and anti-gD antibodies was determined as 70%.

The values above are taken from PMC3931628.
